Target: mite allergen fused protein expressed by pAEX201 in E. coli pop2136 (purified recombinant mite allergen fused protein) (Dermatophagoides farinae)
Conditions: scale: times lower concentration at the inflexion point than the crude mite body antigen

Substance: blood cells from a mite asthma patient, washed with Hanks' solution (cells without a defined receptor)
- histamine release, percent ratio of the released histamine (HPLC): > 200

Source: patent US5405758
